From PMC11727998, “Purification and Electron Transfer from Soluble c-Type Cytochrome TorC to TorA for Trimethylamine N-Oxide Reduction” (International Journal of Molecular Sciences, 2024)

B1: TorD (natural protein, E. coli, UniProt P36662 1-199, looked up)
chain: MTTLTAQQIACVYAWLAQLFSRELDDEQLTQIASAQMAEWFSLLKSEPPLTAAVNELENRIATLTVRDDARLELAADFCGLFLMTDKQAALPYASAYKQDEQEIKRLLVEAGMETSGNFNEPADHLAIYLELLSHLHFSLGEGTVPARRIDSLRQKTLTALWQWLPEFVARCRQYDSFGFYAALSQLLLVLVECDHQNR
notes: source: co-expressed from plasmid pTorAD and co-purified with TorA
B2: TorSN (periplasmic detection domain of TorS) (domain or fragment, E. coli, UniProt P39453 30-332, looked up)
chain: NLRFISQVEKDNTQALIPTMNMARQLSEASAWELFAAQNLTSADNEKMWQAQGRMLTAQSLKINALLQALREQGFDTTAIEQQEQEISRSLRQQGELVGQRLQLRQQQQQLSQQIVAAADEIARLAQGQANNATTSAGATQAGIYDLIEQDQRQAAESALDRLIDIDLEYVNQMNELRLSALRVQQMVMNLGLEQIQKNAPTLEKQLNNAVKILQRRQIRIEDPGVRAQVATTLTTVSQYSDLLALYQQDSEISNHLQTLAQNNIAQFAQFSSEVSQLVDTIELRNQHGLAHLEKASARGQYS
notes: TorS, sensor histidine kinase of E. coli, periplasmic detection domain; also called periplasmic TorS; source: from plasmid pET-Sp (pET21), purified following published procedures [7]
B3: TorA with soluble TorC (physiological electron transfer assay) (Escherichia coli K-12) (protein)
chain: AQAATDAVISKEGILTGSHWGAIRATVKDGRFVAAKPFELDKYPSKMIAGLPDHVHNAARIRYPMVRVDWLRKRHLSDTSQRGDNRFVRVSWDEALDMFYEELERVQKTHGPSALLTASGWQSTGMFHNASGMLAKAIALHGNSVGTGGDYSTGAAQVILPRVVGSMEVYEQQTSWPLVLQNSKTIVLWGSDLLKNQQANWWCPDHDVYEYYAQLKAKVAAGEIEVISIDPVVTSTHEYLGREHVKHIAVNPQTDVPLQLALAHTLYSENLYDKNFLANYCVGFEQFLPYLLGEKDGQPKDAAWAEKLTGIDAETIRGLARQMAANRTQIIAGWCVQRMQHGEQWAWMIVVLAAMLGQIGLPGGGFGFGWHYNGAGTPGRKGVILSGFSGSTSIPPVHDNSDYKGYSSTIPIARFIDAILEPGKVINWNGKSVKLPPLKMCIFAGTNPFHRHQQINRIIEGLRKLETVIAIDNQWTSTCRFADIVLPATTQFERNDLDQYGNHSNRGIIAMKQVVPPQFEARNDFDIFRELCRRFNREEAFTEGLDEMGWLKRIWQEGVQQGKGRGVHLPAFDDFWNNKEYVEFDHPQMFVRHQAFREDPDLEPLGTPSGLIEIYSKTIADMNYDDCQGHPMWFEKIERSHGGPGSQKYPLHLQSVHPDFRLHSQLCESETLRQQYTVAGKEPVFINPQDASARGIRNGDVVRVFNARGQVLAGAVVSDRYAPGVARIHEGAWYDPDKGGEPGALCKYGNPNVLTIDIGTSQLAQATSAHTTLVEIEKYNGTVEQVTAFNGPVEMVAQCEYVPASQVKS
notes: recombinant TorA plus soluble TorC (first 20 residues, membrane anchor, deleted); with Cytochrome c-type protein TorC
B4: TorA (TMAO reductase) (Escherichia coli K-12) (protein)
chain: B3 chain
notes: recombinant from plasmid pTorAD (torAD in pJF119EH), expressed in E. coli; bis-MGD enzyme; monomer; also purified as TorAD2 complex; first 48 and last 5-10 residues not seen in crystal
B5: soluble TorC (heme-containing, holo-TorC) (natural protein, E. coli, UniProt P33226 21-390, looked up)
chain: VAIGIVIGIALIVLPHVGIKVTSTTEFCVSCHSMQPVYEEYKQSVHFQNASGVRAECHDCHIPPDIPGMVKRKLEASNDIYQTFIAHSIDTPEKFEAKRAELAEREWARMKENNSATCRSCHNYDAMDHAKQHPEAARQMKVAAKDNQSCIDCHKGIAHQLPDMSSGFRKQFDELRASANDSGDTLYSIDIKPIYAAKGDKEASGSLLPASEVKVLKRDGDWLQIEITGWTESAGRQRVLTQFPGKRIFVASIRGDVQQQVKTLEKTTVADTNTEWSKLQATAWMKKGDMVNDIKPIWAYADSLYNGTCNQCHGAPEIAHFDANGWIGTLNGMIGFTSLDKREERTLLKYLQMNASDTAGKAHGDKKEEK
modifications: heme c at the five CXXCH motifs (iron saturation about 75% of five hemes)
notes: TorC, pentahemic c-type cytochrome of E. coli, lacking the N-terminal 20 amino acid membrane anchor (first 60 nucleotides of the gene deleted); also called soluble periplasmic TorC; source: E. coli HM125 with pTorC-SS and pEC86 (ccmABCDEFGH), hemin added, purified (Ni-NTA, gel filtration)

Key:
TorA (Escherichia coli) = TorA (Escherichia coli) (UniProt P33225); details: cited from earlier work
soluble TorC = target: T1, soluble TorC (Escherichia coli, UniProt P33226); assay: UV-visible spectroscopy, reduction of TorC; format: biochemical; details: electron donor, anaerobic
T1 construct: expressed in E. coli HM125 with ccmABCDEFGH; 43 kDa monomer

TorA (TMAO reductase) [1] = target: T2, TorA (TMAO reductase) (E. coli, UniProt P33225 40-848); assay: SEC; TorA co-purified with TorD (plasmid pTorAD); TorAD2 complex of 136.5 kDa on analytical gel filtration; details: partners not purified
T2 construct: TorA, TMAO reductase of E. coli, with bis-MGD cofactor; Named only 'TorA' in the crosslinking, the activity assay and the crystal structure; the preparation may have held TorD; source: purified following published procedures [31]
T2 sequence: B3 chain

[2] = target: B5; assay: SPR; Biacore T200, CM5 chip, target immobilised via amine coupling, 25 °C, 30 µL/min, 20 mM phosphate, 150 mM NaCl, 0.005% Tween 20, pH 7.4; global fit, 1:1 binding; mean of three measurements; details: both partners purified
[3] = target: T3, apo-TorC (soluble TorC without hemes) (E. coli, UniProt P33226 21-390); assay: as above; details: both partners purified
T3 construct: TorC of E. coli lacking the N-terminal 20 amino acid membrane anchor, made without heme insertion; also called soluble apo-TorC; source: E. coli, 'soluble torC' gene expressed without the ccm gene cluster (pEC86) and without hemin, purified
T3 sequence (looked up): B5 chain

GC-MS of derivatized TMA = substrate: C[N+](C)(C)[O-]; assay: GC-MS of derivatized TMA; format: biochemical, Escherichia coli; details: 5 µM menadiol as electron donor via soluble TorC, 100 mM Sörensen buffer pH 6.5, 37 °C, anaerobic
Text: GC-MS of derivatized TMA on TorA with soluble TorC (physiological electron transfer assay)

purified protein = substrate: C[N+](C)(C)[O-]; assay: purified protein; format: biochemical, Escherichia coli; details: 400 µM benzyl viologen (dithionite-reduced), 100 mM Sörensen buffer pH 6.5, 37 °C, anaerobic, 3 nM TorA
[4] = target: TorAD2 (TorA purified in a 1:2 stoichiometry with TorD) (E. coli) (UniProt P33225); assay: MST; Monolith NT.115, TorAD2 labelled with NT-647-NHS at constant concentration (5 nM), soluble TorC titrated, 25 °C, premium capillaries
TorA (TMAO reductase) [5] = target: T2, TorA (TMAO reductase); assay: cell-based or functional assay
[6] = target: TorAD2 (TorA purified in a 1:2 stoichiometry with TorD) (E. coli) (UniProt P33225); assay: SPR; Biacore T200, CM5 chip, target immobilised via amine coupling, 25 °C, 30 µL/min, 20 mM phosphate, 150 mM NaCl, 0.005% Tween 20, pH 7.4; global fit, 1:1 binding; mean of three measurements
apo-TorA = target: T4, apo-TorA (E. coli, UniProt P33225 40-848); assay: as above; details: both partners purified
T4 construct: TorA, TMAO reductase of E. coli, apo form; Apo form (without cofactor); source: purified following published procedures [31]
T4 sequence: B3 chain

TorC TorCN (from UniProt P33226)
Kd (TorA (Escherichia coli)): 45 nM

Cc1cc(O)c2ccccc2c1O [menadiol]
UV-visible spectroscopy, reduction of TorC (soluble TorC): menadiol can reduce soluble TorC, which can be re-oxidized by TorA

B1
stoichiometry N (TorA (TMAO reductase) [1]): 2 TorD per TorA

B2
Kd [2]: 1030 nM | Kd [3]: 943 nM

B3
Km (GC-MS of derivatized TMA): 9.8 ± 2.53 µM | kcat (GC-MS of derivatized TMA): 0.145 ± 0.05 s⁻¹

B4
Km (purified protein): 22.06 ± 0.75 µM | kcat (purified protein): 228 ± 46.3 s⁻¹

B5
Kd [4]: 1070 nM | kcat of TMAO reduction by TorA with menadiol and soluble TorC as electron donors (TMA quantified by GC-MS) (TorA (TMAO reductase) [5]): 0.145 s⁻¹ | Kd [6]: 309 nM | Kd (apo-TorA): 266 nM
